Reference: US20250296971A1, “GASTRIC INHIBITORY PEPTIDE RECEPTOR LIGANDS” (priority 2021, published 2025)
One block for each binder: values may come before it. *1 amine or outer side, *2 acyl side, *3 side chain or, on linkers, in order; H or OH if unused. Bridges are numbered along the chain shown (N, C = ends). Primed or numbered codes have the meaning given here. [ ]: non-standard residue; d: D form. 2Lut = 2,6-lutidylidene bridge between two thiols; Trp(5-Cl) = N[C@@H](Cc1c[nH]c2ccc(Cl)cc12)C(=O)O; Phe(3,4-Cl2) = N[C@@H](Cc1ccc(Cl)c(Cl)c1)C(=O)O; Pyridine(2,6-diCH2) = c1cc(C[*:1])nc(C[*:2])c1; Phe(2,4-Cl2) = N[C@@H](Cc1ccc(Cl)cc1Cl)C(=O)O; 2Lut″ = 2,6-lutidylidene linking two thiols; Phe(3-Cl) = N[C@@H](Cc1cccc(Cl)c1)C(=O)O; Phe(4-Cl) = N[C@@H](Cc1ccc(Cl)cc1)C(=O)O; Hyp = O=C(O)[C@@H]1C[C@@H](O)CN1; pS = N[C@@H](COP(=O)(O)O)C(=O)O; Thp = NC1(C(=O)O)CCOCC1

Molecular target: human Gastric Inhibitory Peptide Receptor (GIPR) (human) (UniProt P48546)
Experiment: FACS competition vs biotinylated GIP-057 on CHO-K1-hGIPR cells; category A: pIC50 >8.0

pIC50: > 8 pic50
B2: Ac-Asp-Eaa-5Clw-Hyp-Glu-leu-[Cys(2Lut)-Thp-Leu-Ile-Cys]-NH2 (peptide)
peptide: Ac-D[Phe(3,4-Cl2)][Trp(5-Cl)][Hyp]E[dL]C[Thp]LIC-NH2
modifications: linker 7-11 via Pyridine(2,6-diCH2)
SMILES: CC[C@H](C)[C@@H]1NC(=O)[C@H](CC(C)C)NC(=O)C2(CCOCC2)NC(=O)[C@@H](NC(=O)[C@@H](CC(C)C)NC(=O)[C@H](CCC(=O)O)NC(=O)[C@@H]2C[C@@H](O)CN2C(=O)[C@H](Cc2c[nH]c3ccc(Cl)cc23)NC(=O)[C@H](Cc2ccc(Cl)c(Cl)c2)NC(=O)[C@H](CC(=O)O)NC(C)=O)CSCc2cccc(n2)CSC[C@@H](C(N)=O)NC1=O

pIC50: > 8 pic50
B3: Ac-Asp-Egm-5Clw-Hyp-Glu-leu-[Cys(2Lut)-Thp-Leu-Ile-Cys]-NH2 (peptide)
peptide: Ac-D[Phe(2,4-Cl2)][Trp(5-Cl)][Hyp]E[dL]C[Thp]LIC-NH2
modifications: linker 7-11 via Pyridine(2,6-diCH2)
SMILES: CC[C@H](C)[C@@H]1NC(=O)[C@H](CC(C)C)NC(=O)C2(CCOCC2)NC(=O)[C@@H](NC(=O)[C@@H](CC(C)C)NC(=O)[C@H](CCC(=O)O)NC(=O)[C@@H]2C[C@@H](O)CN2C(=O)[C@H](Cc2c[nH]c3ccc(Cl)cc23)NC(=O)[C@H](Cc2ccc(Cl)cc2Cl)NC(=O)[C@H](CC(=O)O)NC(C)=O)CSCc2cccc(n2)CSC[C@@H](C(N)=O)NC1=O

pIC50: > 8 pic50
Binder: {HO‑Glutar}-W[Trp(5-Cl)][Hyp]E[dL]C[Thp]LIC-NH2 (linker 6-10 via 2Lut) [HO-Glutar-Trp-5Clw-Hyp-Glu-leu-[Cys(2Lut)-Thp-Leu-Ile-Cys]-NH2]

pIC50: > 8 pic50
Binder: Ac-DW[Trp(5-Cl)][Hyp][pS][dL]C[Thp]LIC-NH2 (linker 7-11 via Pyridine(2,6-diCH2)) [Ac-Asp-Trp-5Clw-Hyp-Pse-leu-[Cys(2Lut)-Thp-Leu-Ile-Cys]-NH2]

More lines, now with the values behind:

Binder: Ac-D[Phe(4-Cl)][Trp(5-Cl)][Hyp]E[dL]C[Thp]LIC-NH2 (linker 7-11 via Pyridine(2,6-diCH2)) [Ac-Asp-Pcf-5Clw-Hyp-Glu-leu-[Cys(2Lut)-Thp-Leu-Ile-Cys]-NH2]
pIC50: > 8 pic50

B1: Ac-Asp-Mcf-5Clw-Hyp-Glu-leu-[Cys(2Lut)-Thp-Leu-Ile-Cys]-NH2 (peptide)
peptide: Ac-D[Phe(3-Cl)][Trp(5-Cl)][Hyp]E[dL]C[Thp]LIC-NH2
modifications: linker 7-11 via Pyridine(2,6-diCH2)
SMILES: CC[C@H](C)[C@@H]1NC(=O)[C@H](CC(C)C)NC(=O)C2(CCOCC2)NC(=O)[C@@H](NC(=O)[C@@H](CC(C)C)NC(=O)[C@H](CCC(=O)O)NC(=O)[C@@H]2C[C@@H](O)CN2C(=O)[C@H](Cc2c[nH]c3ccc(Cl)cc23)NC(=O)[C@H](Cc2cccc(Cl)c2)NC(=O)[C@H](CC(=O)O)NC(C)=O)CSCc2cccc(n2)CSC[C@@H](C(N)=O)NC1=O
pIC50: > 8 pic50

Binder: Ac-DW[Phe(3,4-Cl2)][Hyp]E[dL]C[Thp]LIC-NH2 (linker 7-11 via 2Lut″) [Ac-Asp-Trp-Eaa-Hyp-Glu-leu-[Cys(2Lut)-Thp-Leu-Ile-Cys]-NH2]
pIC50: > 8 pic50
